The results in this text go back to patent US20040167319A1 (Genmab, published 2004).

The target in experiment [1] is T1, YCNIYNAEPANPSCK (linker 2-14 via mXylylene; reading uncertain).
T1 construct: 15-mer looped Pepscan peptide derived from human CD20, Cys put in at two positions
T1 peptide: Ac-YCNIYNAEPANPSCK-minicard
The experiment is described as follows: Pepscan ELISA, 10 µg/ml. From the text:
(§1) In some cases chemical linkage of the legs of a 15-mer peptide helps to identify amino acid sequences of a potentially discontinuous epitope. […] The 9- and 15-mers were synthesized as loops and screened using credit-card format mini-PEPSCAN cards (455 peptide format/card). In all looped peptides amino acids at varied positions were replaced by a cysteine (e.g., acetyl-XCXXXXXXXXCX-minicard). The peptides were synthesized using standard Fmoc-chemistry and deprotected using TFA with scavengers. Subsequently, the deprotected peptides were reacted on the microarray with an 0.5 mM solution of 1,3-bis(bromomethyl)-benzene in ammonium bicarbonate (20 mM, pH 7.9), supplemented with acetonitrile (1:1 (v/v)). The microarrays were gently shaken in the solution for 30-60 min, while completely covered in the solution. Finally, the microarrays were washed extensively with excess of Millipore H₂O and sonicated in disrupt-buffer containing 1% sodium dodecylsulfate, 0.1% β-mercaptoethanol, in PBS (pH 7.2) at 70° C. for 30 min, followed by sonication in millipore H₂O for another 45 min. Subsequently, the microwells were ready for screening in an ELISA-assay.
(§2) […] After washing, the peptides were incubated with anti-human antibody peroxidase (dilution 1:1000, 1 hour, 25° C.), and after washing the peroxidase substrate, 2,2′-azino-di-3-ethylbenzthiazolin sulfonate and 2 μl/ml 3% H₂O₂ were added. After one hour, the color development was measured. The color development of the ELISA was quantified with a CCD-camera and an image processing system.
In general terms: An ELISA detects its analyte on a solid surface through an enzyme-linked reagent.

Experiment [2] addresses T2, EPANPSEK of the second extracellular loop of human CD20 (human).
T2 construct: not a peptide made as such
T2 peptide: EPANPSEK
In words: Pepscan ELISA. How it is done:
(§3) Pepscan ELISA-assay: The 455-well credit card-format polyethylene cards, containing the covalently linked peptides, were incubated with serum (diluted 1:1000 in blocking solution which contains 5% horse serum (v/v) and 5% ovalbumin (w/v)) (4° C., over night). After washing, the peptides were incubated with anti-human antibody peroxidase (dilution 1:1000, 1 hour, 25° C.), and after washing the peroxidase substrate, 2,2′-azino-di-3-ethylbenzthiazolin sulfonate and 2 μl/ml 3% H₂O₂ were added. After one hour, the color development was measured. The color development of the ELISA was quantified with a CCD-camera and an image processing system. The set up consists of a CCD-camera and a 55 mm lens (Sony CCD Video Camera XC-77RR, Nikon micro-nikk or 55 mm f/2.8 lens), a camera adaptor (Sony Camera adaptor DC-77RR) and the Image Processing Software package Optimas, version 6.5 (Media Cybernetics, Silver Spring, Md. 20910, U.S.A.). Optimas runs on a pentium II computer system.

Experiment [3] deals with T3, KMECLNFIRAHCPYI (linker 4-12 via 1,3‑bis(bromomethyl)‑benzene (inferred); reading uncertain).
T3 construct: 15-mer looped Pepscan peptide derived from human CD20, Cys put in at two positions
T3 peptide: Ac-KMECLNFIRAHCPYI-minicard
In words: Pepscan ELISA, 100 µg/ml.
Text: as §1, §2

In experiment [4] the target is T4, PAGIYAP (also: covalently linked to polyethylene card).
T4 construct: 7-mer Pepscan peptide derived from human CD20
T4 peptide: PAGIYAP
The experiment is described as follows: Pepscan ELISA, 100 µg/ml.
Text: as §1, §2

Experiment [5] concerns the target T5, CIRAHTPYC (linker 1-9 via 1,3‑bis(bromomethyl)‑benzene (inferred); not fully specified (C-terminus); also: covalently linked to minicard).
T5 construct: 9-mer looped Pepscan peptide derived from human CD20
T5 peptide: CIRAHTPYC
In words: Pepscan ELISA, 100 µg/ml.
Text: as §1, §2

Experiment [6] has as its target T6, KMESCNFIRACTPYI (linker 5-11 via 1,3‑bis(bromomethyl)‑benzene (inferred); reading uncertain).
T6 construct: 15-mer looped Pepscan peptide derived from human CD20, Cys put in at two positions
T6 peptide: Ac-KMESCNFIRACTPYI-minicard
In words: Pepscan ELISA, 100 µg/ml.
Text: as §1, §2

Experiment [7] has as its target T7, LKMECLNFIRCHTPY (linker 5-11 via 1,3‑bis(bromomethyl)‑benzene (inferred); reading uncertain).
T7 construct: 15-mer looped Pepscan peptide derived from human CD20, Cys put in at two positions
T7 peptide: Ac-LKMECLNFIRCHTPY-minicard
In words: Pepscan ELISA, 100 µg/ml.
Text: as §1, §2

Experiment [8] deals with T8, CAHTPYINC (linker 1-9 via 1,3‑bis(bromomethyl)‑benzene (inferred); not fully specified (C-terminus); also: covalently linked to minicard).
T8 construct: 9-mer looped Pepscan peptide derived from human CD20
T8 peptide: CAHTPYINC
In words: Pepscan ELISA, 100 µg/ml.
Text: as §1, §2

Experiment [9] deals with T9, IYAPIAV (also: covalently linked to polyethylene card).
T9 construct: 7-mer Pepscan peptide derived from human CD20 (A in place of the C of IYAPICV)
T9 peptide: IYAPIAV
The experiment is described as follows: Pepscan ELISA, 100 µg/ml.
Text: as §1, §2

For experiment [10], the target named is T10, AGIYAPI (also: covalently linked to polyethylene card).
T10 construct: 7-mer Pepscan peptide derived from human CD20
T10 peptide: AGIYAPI
The experiment is described as follows: Pepscan ELISA, 100 µg/ml.
Text: as §1, §2

The target of experiment [11] is T11, IYAPICV (also: covalently linked to polyethylene card).
T11 construct: 7-mer Pepscan peptide derived from human CD20
T11 peptide: IYAPICV
The experiment is described as follows: Pepscan ELISA, 100 µg/ml.
Text: as §1, §2

Experiment [12] has as its target T12, IPAGIYA (also: covalently linked to polyethylene card).
T12 construct: 7-mer Pepscan peptide derived from human CD20
T12 peptide: IPAGIYA
In words: Pepscan ELISA, 100 µg/ml.
Text: as §1, §2

For experiment [13], the target named is T13, GIYAPIA (also: covalently linked to polyethylene card).
T13 construct: 7-mer Pepscan peptide derived from human CD20 (A in place of the C of GIYAPIC)
T13 peptide: GIYAPIA
The experiment is described as follows: Pepscan ELISA, 100 µg/ml.
Text: as §1, §2

Experiment [14] has as its target T14, CFIRAHTPC (linker 1-9 via 1,3‑bis(bromomethyl)‑benzene (inferred); not fully specified (C-terminus); also: covalently linked to minicard).
T14 construct: 9-mer looped Pepscan peptide derived from human CD20
T14 peptide: CFIRAHTPC
In words: Pepscan ELISA, 100 µg/ml.
Text: as §1, §2

Experiment [15] concerns the target T15, GIYAPIC (also: covalently linked to polyethylene card).
T15 construct: 7-mer Pepscan peptide derived from human CD20
T15 peptide: GIYAPIC
In words: Pepscan ELISA, 100 µg/ml.
Text: as §1, §2

The target in experiment [16] is T16, MESLCFIRAHCPYIN (linker 5-11 via 1,3‑bis(bromomethyl)‑benzene (inferred); reading uncertain).
T16 construct: 15-mer looped Pepscan peptide derived from human CD20, Cys put in at two positions
T16 peptide: Ac-MESLCFIRAHCPYIN-minicard
The experiment is described as follows: Pepscan ELISA, 100 µg/ml.
Text: as §1, §2

The target of experiment [17] is T17, CRAHTPYIC (linker 1-9 via 1,3‑bis(bromomethyl)‑benzene (inferred); not fully specified (C-terminus); also: covalently linked to minicard).
T17 construct: 9-mer looped Pepscan peptide derived from human CD20
T17 peptide: CRAHTPYIC
The experiment is described as follows: Pepscan ELISA, 100 µg/ml.
Text: as §1, §2

Experiment [18] has as its target T18, MESLNFIRAHTPYI of the second extracellular loop of human CD20 (human).
T18 construct: not a peptide made as such
T18 peptide: MESLNFIRAHTPYI
In words: Pepscan ELISA. The protocol:
as §3

Experiment [19] deals with T19, AGIYAP of the small first extracellular loop of human CD20 (human).
T19 construct: not a peptide made as such
T19 peptide: AGIYAP
In words: Pepscan ELISA. How it is done: as §3

*1 amine or outer side, *2 acyl side, *3 side chain or, on linkers, in order; H or OH if unused. Bridges are numbered along the chain shown (N, C = ends). Where no end group is shown, it is not given here. mXylylene = c1cc(C[*:1])cc(C[*:2])c1; minicard = not defined here

B1: 11B8 (antibody, IgG3, V domains shown)
VH: EVQLVQSGGGLVHPGGSLRLSCTGSGFTFSYHAMHWVRQAPGKGLEWVSIIGTGGVTYYADSVKGRFTISRDNVKNSLYLQMNSLRAEDMAVYYCARDYYGAGSFYDGLYGMDVWGQGTTVTVSS
VL: EIVLTQSPATLSLSPGERATLSCRASQSVSSYLAWYQQKPGQAPRLLIYDASNRATGIPARFSGSGSGTDFTLTISSLEPEDFAVYYCQQRSDWPLTFGGGTKVEIK
notes: Human monoclonal IgG3,κ from hybridoma
As to B1, the “OD (absorbance)” value came out at 287 OD in [1]; 3000 OD in [3]; 2500 OD in experiment [4]; 449 OD in [5]; 3090 OD in experiment [6]; 738 OD in [7]. For the same molecule, the “OD (absorbance)” value in [8] came out at 452 OD; in [9] it was 654 OD; in experiment [10], 2210 OD; in [11], 313 OD; in [12], 950 OD; in experiment [13] it was 857 OD. Besides, the “OD (absorbance)” value in [14] stood at 534 OD; in experiment [15], 251 OD; in experiment [16], 956 OD; in experiment [17], 1600 OD. The binding result in experiment [2] is “no binding (tested: 10 µg/ml)”.

B2: 7D8 (antibody, IgG1, V domains shown)
VH: EVQLVESGGGLVQPDRSLRLSCAASGFTFHDYAMHWVRQAPGKGLEWVSTISWNSGTIGYADSVKGRFTISRDNAKNSLYLQMNSLRAEDTALYYCAKDIQYGNYYYGMDVWGQGTTVTVSS
VL: EIVLTQSPATLSLSPGERATLSCRASQSVSSYLAWYQQKPGQAPRLLIYDASNRATGIPARFSGSGSGTDFTLTISSLEPEDFAVYYCQQRSNWPITFGQGTRLEIK
notes: Human monoclonal IgG1,κ from hybridoma
On to B2, for which the “OD (absorbance)” value in experiment [1] amounted to 181 OD; in experiment [3], 41 OD; in [4] it was 64 OD; in experiment [5] it was 60 OD; in experiment [6] it was 52 OD; in [7], 41 OD. The “OD (absorbance)” value in experiment [8] was determined as 65 OD; in experiment [9], 58 OD; in experiment [10], 73 OD; in experiment [11], 58 OD; in experiment [13], 96 OD; in experiment [14] it was 69 OD. Besides, the entries for the “OD (absorbance)” value in [15], in experiment [16] and in experiment [17] were 64 OD, 55 OD and 64 OD, respectively. Also, the results for the binding result in experiment [18], in experiment [2] and in experiment [19] were “no binding (tested: 100 µg/ml)”, “no binding (tested: 10 µg/ml)” and “no binding (tested: 100 µg/ml)”, respectively.

B3: 2F2 (antibody, V domains shown)
VH: EVQLVESGGGLVQPGRSLRLSCAASGFTFNDYAMHWVRQAPGKGLEWVSTISWNSGSIGYADSVKGRFTISRDNAKKSLYLQMNSLRAEDTALYYCAKDIQYGNYYYGMDVWGQGTTVTVSS
VL: EIVLTQSPATLSLSPGERATLSCRASQSVSSYLAWYQQKPGQAPRLLIYDASNRATGIPARFSGSGSGTDFTLTISSLEPEDFAVYYCQQRSNWPITFGQGTRLEIK
modifications: FITC- or 125I-labelled in some assays; F(ab')2 fragments in some; the letters do not carry this
notes: Human monoclonal IgG1,κ from hybridoma; also called 4C9; HuMab 2F2 (hybridoma-derived)
Turning to B3, the “OD (absorbance)” value is 86 OD in experiment [1]; 66 OD in [3]; 85 OD in experiment [4]; 92 OD in experiment [5]; 78 OD in experiment [6]; 87 OD in [7]. In addition, the “OD (absorbance)” value in experiment [8] worked out at 106 OD; in experiment [9] it was 76 OD; in [10], 98 OD; in [11], 99 OD; in experiment [12], 85 OD; in experiment [13], 96 OD. Also, the “OD (absorbance)” value was 114 OD in experiment [14], 93 OD in experiment [15], 65 OD in [16] and 87 OD in [17].
